Positions count from the first letter of the chain named. Blank lines part the entries; values can stand above or below the binder they belong to.
Tests used:
[1] = target: anti-P-Selectin antibody (IgG4 subclass with mutations S228P/L235E) [IgG part: P01861]; assay: sandwich ELISA assay A; capture M1.7.10-Bi; antibody 4 at 13 ng/mL
[2] = target: anti-IGF-1R antibody (IgG1 subclass with mutations I253A/H310A/H435A) (human) [IgG part: P01857]; assay: sandwich ELISA assay C; capture on SA plate; tracer FcγRI-Dig; analyte 3 ng/mL
[3] = target: anti-P-Selectin antibody (IgG4 subclass with mutations S228P/L235E) (human) [IgG part: P01861]; assay: as above
[4] = target: anti-VEGF/ANG2 antibody (IgG1 subclass with mutations P329G/L234A/L235A) (human) [IgG part: P01857]; assay: as above
[5] = target: anti-VEGF/ANG2 antibody (IgG1 subclass with mutations P329G/L234A/L235A/I253A/H310A/H435A) (human) [IgG part: P01857]; assay: as above
[6] = target: anti-P-Selectin antibody (IgG4 subclass with mutations S228P/L235E) (human) [IgG part: P01861]; assay: sandwich ELISA assay C; capture on SA plate; tracer FcγRI-Dig; analyte 50 ng/mL
[7] = target: anti-VEGF/ANG2 antibody (IgG1 subclass with mutations P329G/L234A/L235A) (human) [IgG part: P01857]; assay: as above
[8] = target: anti-VEGF/ANG2 antibody (IgG1 subclass with mutations P329G/L234A/L235A/I253A/H310A/H435A) (human) [IgG part: P01857]; assay: as above
[9] = target: anti-P-Selectin antibody (IgG4 subclass with mutations S228P/L235E) [IgG part: P01861]; assay: sandwich ELISA assay A; capture M1.7.10-Bi; antibody 4 at 3 ng/mL
[10] = target: anti-P-Selectin antibody (IgG4 subclass with mutations S228P/L235E) [IgG part: P01861]; assay: sandwich ELISA assay A; capture M1.7.10-Bi; antibody 4 at 50 ng/mL
[11] = target: anti-VEGF/ANG2 antibody (IgG1 subclass with mutations P329G/L234A/L235A) [IgG part: P01857]; assay: sandwich ELISA assay A; capture M1.7.10-Bi; antibody 2 at 13 ng/mL
[12] = target: anti-VEGF/ANG2 antibody (IgG1 subclass with mutations P329G/L234A/L235A) [IgG part: P01857]; assay: sandwich ELISA assay A; capture M1.7.10-Bi; antibody 2 at 3 ng/mL
[13] = target: anti-VEGF/ANG2 antibody (IgG1 subclass with mutations P329G/L234A/L235A) [IgG part: P01857]; assay: sandwich ELISA assay A; capture M1.7.10-Bi; antibody 2 at 0 ng/mL (blank)
[14] = target: anti-IGF-1R antibody (IgG1 subclass with mutations I253A/H310A/H435A) (human) [IgG part: P01857]; assay: sandwich ELISA assay B; capture on SA plate; tracer M1.7.10-Dig; analyte 6 ng/mL
[15] = target: anti-P-Selectin antibody (IgG4 subclass with mutations S228P/L235E) (human) [IgG part: P01861]; assay: as above
[16] = target: anti-VEGF/ANG2 antibody (IgG1 subclass with mutations P329G/L234A/L235A) (human) [IgG part: P01857]; assay: as above
[17] = target: anti-VEGF/ANG2 antibody (IgG1 subclass with mutations P329G/L234A/L235A/I253A/H310A/H435A) (human) [IgG part: P01857]; assay: as above
[18] = target: anti-VEGF/ANG2 antibody (IgG1 subclass with mutations P329G/L234A/L235A) [IgG part: P01857]; assay: sandwich ELISA assay A; capture M1.7.10-Bi; antibody 2 at 6 ng/mL
[19] = target: anti-IGF-1R antibody (IgG1 subclass with mutations I253A/H310A/H435A) [IgG part: P01857]; assay: sandwich ELISA assay A; capture M1.7.10-Bi; antibody 3 at 3 ng/mL
[20] = target: anti-P-Selectin antibody (IgG4 subclass with mutations S228P/L235E) [IgG part: P01861]; assay: sandwich ELISA assay A; capture M1.7.10-Bi; antibody 4 at 25 ng/mL
[21] = target: anti-IGF-1R antibody (IgG1 subclass with mutations I253A/H310A/H435A) (human) [IgG part: P01857]; assay: sandwich ELISA assay C; capture on SA plate; tracer FcγRI-Dig; analyte 6 ng/mL
[22] = target: anti-P-Selectin antibody (IgG4 subclass with mutations S228P/L235E) (human) [IgG part: P01861]; assay: as above
[23] = target: anti-VEGF/ANG2 antibody (IgG1 subclass with mutations P329G/L234A/L235A) (human) [IgG part: P01857]; assay: as above
[24] = target: anti-VEGF/ANG2 antibody (IgG1 subclass with mutations P329G/L234A/L235A/I253A/H310A/H435A) (human) [IgG part: P01857]; assay: as above
[25] = target: anti-P-Selectin antibody (IgG4 subclass with mutations S228P/L235E) [IgG part: P01861]; assay: sandwich ELISA assay A; capture M1.7.10-Bi; antibody 4 at 0 ng/mL (blank)

- signal [OD405 nm] [1]: 0.038 OD405 nm
- signal [OD405 nm] [2]: 1.21 OD405 nm
- signal [OD405 nm] [3]: 1.19 OD405 nm
- signal [OD405 nm] [4]: 1.22 OD405 nm
- signal [OD405 nm] [5]: 1.16 OD405 nm
- signal [OD405 nm] [6]: 1.15 OD405 nm
- signal [OD405 nm] [7]: 1.21 OD405 nm
- signal [OD405 nm] [8]: 1.17 OD405 nm
- signal [OD405 nm] [9]: 0.033 OD405 nm
- signal [OD405 nm] [10]: 0.037 OD405 nm
- signal [OD405 nm] [11]: 2.7 OD405 nm
- signal [OD405 nm] [12]: 1.22 OD405 nm
- signal [OD405 nm] [13]: 0.042 OD405 nm
- signal [OD405 nm] [14]: 0.045 OD405 nm
- signal [OD405 nm] [15]: 0.048 OD405 nm
- signal [OD405 nm] [16]: 0.196 OD405 nm
- signal [OD405 nm] [17]: 0.035 OD405 nm
- signal [OD405 nm] [18]: 1.99 OD405 nm
- signal [OD405 nm] [19]: 0.036 OD405 nm
- signal [OD405 nm] [20]: 0.037 OD405 nm
- signal [OD405 nm] [21]: 1.21 OD405 nm
- signal [OD405 nm] [22]: 1.18 OD405 nm
- signal [OD405 nm] [23]: 1.22 OD405 nm
- signal [OD405 nm] [24]: 1.17 OD405 nm
- signal [OD405 nm] [25]: 0.036 OD405 nm
B1: anti-variant (human) Fc-region antibody M1.3.17 (antibody, V domains shown)
VH: EVKLLESGGGLVQPGGSLKLSCAASGIDFRRYWMNWVRQAPGKGLEWIGEIDPDSSTINYTPSLKDKFIISRDNAKNTMYLQMRKVRSEDTALYYCARPYDYGAWFAYWGQGTLVTVSA
VL: QAVVTQESALTTSPGETVTLTCRSTTGAVTTSNYANWVQEKPDHLFTGLIGGTNKRAPGVPARFSGSLIGDKAALTITGAQTEDEAIYFCALWYSDHWVFGGGTKLTVL

- signal [OD405 nm] [1]: 0.046 OD405 nm
- signal [OD405 nm] [2]: 0.077 OD405 nm
- signal [OD405 nm] [3]: 0.053 OD405 nm
- signal [OD405 nm] [4]: 0.057 OD405 nm
- signal [OD405 nm] [5]: 0.094 OD405 nm
- signal [OD405 nm] [6]: 0.066 OD405 nm
- signal [OD405 nm] [7]: 0.094 OD405 nm
- signal [OD405 nm] [8]: 0.084 OD405 nm
- signal [OD405 nm] [9]: 0.04 OD405 nm
- signal [OD405 nm] [10]: 0.049 OD405 nm
- signal [OD405 nm] [11]: 2.52 OD405 nm
- signal [OD405 nm] [12]: 1.73 OD405 nm
- signal [OD405 nm] [13]: 0.043 OD405 nm
- signal [OD405 nm] [14]: 0.039 OD405 nm
- signal [OD405 nm] [15]: 0.037 OD405 nm
- signal [OD405 nm] [16]: 2.98 OD405 nm
- signal [OD405 nm] [17]: 0.053 OD405 nm
- signal [OD405 nm] [18]: 2.24 OD405 nm
- signal [OD405 nm] [19]: 0.045 OD405 nm
- signal [OD405 nm] [20]: 0.048 OD405 nm
- signal [OD405 nm] [21]: 0.069 OD405 nm
- signal [OD405 nm] [22]: 0.053 OD405 nm
- signal [OD405 nm] [23]: 0.06 OD405 nm
- signal [OD405 nm] [24]: 0.079 OD405 nm
- signal [OD405 nm] [25]: 0.045 OD405 nm
B2: anti-variant (human) Fc-region antibody M1.7.24 (antibody, V domains shown)
VH: B1 VH with I27F, R30S, D52T, M79L, R84I, A97V, Y108S
VL: B1 VL with T25S, D96N

- signal [OD405 nm] [1]: 0.05 OD405 nm
- signal [OD405 nm] [2]: 0.083 OD405 nm
- signal [OD405 nm] [3]: 0.05 OD405 nm
- signal [OD405 nm] [4]: 0.068 OD405 nm
- signal [OD405 nm] [5]: 0.066 OD405 nm
- signal [OD405 nm] [6]: 0.054 OD405 nm
- signal [OD405 nm] [7]: 0.057 OD405 nm
- signal [OD405 nm] [8]: 0.077 OD405 nm
- signal [OD405 nm] [9]: 0.037 OD405 nm
- signal [OD405 nm] [10]: 0.052 OD405 nm
- signal [OD405 nm] [11]: 0.051 OD405 nm
- signal [OD405 nm] [12]: 0.039 OD405 nm
- signal [OD405 nm] [13]: 0.048 OD405 nm
- signal [OD405 nm] [14]: 2.73 OD405 nm
- signal [OD405 nm] [15]: 0.04 OD405 nm
- signal [OD405 nm] [16]: 0.053 OD405 nm
- signal [OD405 nm] [17]: 0.039 OD405 nm
- signal [OD405 nm] [18]: 0.044 OD405 nm
- signal [OD405 nm] [19]: 0.414 OD405 nm
- signal [OD405 nm] [20]: 0.057 OD405 nm
- signal [OD405 nm] [21]: 0.104 OD405 nm
- signal [OD405 nm] [22]: 0.051 OD405 nm
- signal [OD405 nm] [23]: 0.06 OD405 nm
- signal [OD405 nm] [24]: 0.06 OD405 nm
- signal [OD405 nm] [25]: 0.043 OD405 nm
B3: anti-AAA variant Fc-region antibody M1.6.22 (antibody, V domains shown)
VH: EVQLVESGGDLVKPGGSLKLSCAASGFTFSSYGMSWVRQTPDKRLEWVATISSGGSYIYYPDSVKGRFTISRDNAKNTLYLQMSSLKSEDTAMYYCARLGMITTGYAMDYWGQGTSVTVSS
VL: DVLMTQTPLSLPVSLGDQASISCRSSQTIVHSTGHTYLEWFLQKPGQSPKLLIYKVSNRFSGVPDRFSGSGSGTDFTLKISRVEAEDLGVYYCFQGSHVPYTFGGGTKLEIK
